Two molecules from publication PMC7845647 can be followed below.

The target of the data set is FadR (Escherichia coli (EHEC) 86-24, UniProt B5YXL1 1-239). In words: EMSA; apo FadR, no ligand. As to conditions: protein: recombinant, tags: N-terminal His (pET28, NdeI/BamHI), chain copies: 2, blunt. Background: A gel shift assay detects complexes by their altered migration in electrophoresis.
FadR, sequence (B5YXL1 whole entry): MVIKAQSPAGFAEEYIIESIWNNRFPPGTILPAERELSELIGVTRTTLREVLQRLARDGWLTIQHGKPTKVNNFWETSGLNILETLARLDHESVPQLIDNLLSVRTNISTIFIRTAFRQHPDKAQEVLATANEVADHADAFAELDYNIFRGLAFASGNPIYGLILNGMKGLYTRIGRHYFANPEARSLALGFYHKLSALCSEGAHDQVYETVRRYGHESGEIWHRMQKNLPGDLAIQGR

B1: fadL promoter FadR site (FadR_fadL site) (dsDNA)
DNA 1: ATCTGGTACGACCAGAT
DNA 2: ATCTGGTCGTACCAGAT
Turning to B1, the binding result (label: 32P (EMSA, T4 PNK), none stated in thermal shift) is “binds”.

B2: ler (LEE1) promoter distal FadR site (FadR_ler site) (dsDNA)
DNA 1: TAATCGTTTGTCCGACTTTAACAGA
DNA 2: TCTGTTAAAGTCGGACAAACGATTA
As for B2, where the note is “label: 32P (T4 PNK)”, the binding result was “binds”.
